Source: patent US20090130133A1 (VAXON BIOTECH, published 2009)

B1: TERT988Y (peptide)
peptide: YLQVNSLQTV
notes: also called optimized variant of the cryptic peptide TERT988
B2: HER-2/neu402Y (peptide)
peptide: YLEEITGYL
notes: also called optimized variant of the cryptic peptide HER-2/neu402
B3: MAGE-A248V9 (peptide)
peptide: YLEYRQVPV
notes: also called optimized variant of MAGE-A248D9/G9

Tests used:
HLA-A*0201 [1] = target: T1, HLA-A*0201 (human); assay: T2 cell HLA-A*0201 stabilisation, flow cytometry with mAb BB7.2; peptide concentration / reference peptide concentration giving 20% HLA-A*0201 expression
T1 construct: whole, on cells; MHC class I molecule on T2 cells; also called HLA-A2
Protocol: (§1) The protocol used to measure relative affinity (RA) is described in detail elsewhere (Tourdot et al., 2000). […] The cells were then treated with Brefeldin A for 1 h, washed, incubated at 37° C. for 0, 2, 4 and 6 hours, and labeled with mAb BB7.2.

HLA-A*0201 [2] = target: T1, HLA-A*0201; assay: T2 cells loaded with 100 µM peptide, Brefeldin A, decay of HLA-A*0201 labelling (mAb BB7.2) over 0-6 h
Protocol: as §1

Row | Binder | RA (relative affinity) (HLA-A*0201 [1]) | DC50 (half-life of the HLA/peptide complex) (HLA-A*0201 [2]) [h]
1 | B1 | 2.1 ratio to reference peptide HIVpol589 (reference = 1) | > 6
2 | B2 | 3.6 ratio to reference peptide HIVpol589 (reference = 1) | 4
3 | B3 | 1.8 ratio to reference peptide HIVpol589 (reference = 1) | 4
